Molecular target: specific antigen (aa 245-258 of the GCN4 leucine zipper) fused to LexA (yeast)
Test: yeast two hybrid, LacZ reporter, bait LexA-GCN4 leucine zipper; Empty Vector is printed as 0.18

Gal4 AD-AL5 scFv fusion (ampicillin-binding control scFv AL5) (from UniProt P04386 768-881)
Rel. β-gal. activity %: 0.19%

From patent US20010024831A1
